Measurements published in patent publication US20210253711A1.
Each block holds one binder with its values, some of them ahead of it.

Molecular target: MICA antigen of Table 2 (purified 6×His-MICA*08 or 6×His-MICA*04) (UniProt Q29983)
Test: BLI (Octet Red96), mAb captured on anti-mouse IgG Fc biosensors, His-tagged MICA in solution, 1:1 model

- Kd: 1.18 nM
- koff: 0.000421 s⁻¹
- kon: 383000 M⁻¹ s⁻¹
B1: 3F9.E4 (antibody, V domains shown)
VH: EVQLQESGEGLVKPGGSLKLSCAASGFTFSNYAMSWVRQTPEKRLEWVAYISPGGDYIYYADTVKGRFTISRDNARNTLYLQMSSLKSEDTAMYYCTTDRRHYGSYAMDYWGQGISVTVSS
VL: DIVMTQAAPSVPVTPGESVSISCRSSKSLLHSNGNTYLYWFLQRPGQSPQLLIYRMSNLASGVPDRFSGSGSGTAFTLRISRVEAEDVGVYYCMQHLEYPFTFGSGTKLEIK

- Kd: 6.45 nM
- koff: 0.000548 s⁻¹
- kon: 93300 M⁻¹ s⁻¹
B2: 16F10.C12 (antibody, V domains shown)
VH: EVQLQESGPGLVAPSQSLSITCTVSGFSLTAFGVNWVRQPPGKGLEWLGMIWGDGNTDYNSTLRSRLSISKDNSKSQVFLKLNSLQTDDTARYFCARETYYGNYAGLGYWGQGTLVTVSA
VL: QIVLTQSPAIMSASIGERVTMTCTASSSVSSNYLHWYQQKPRSSPKLWIYTTSNLASGVPTRFSGSGSGTSYSLTISSMEAEDAATYYCHQFHRSPFTFGSGTKLEIK
